Data published in IntAct's records for PubMed 11473260.

B1: SAGA complex/transcription factor TFIID complex subunit TAF12 (Saccharomyces cerevisiae), Q03761 (parent)
chain: MSSNPENSGVNANNNTGTGNADAITGAQQNMVLQPRQLQEMAAKFRTLLTEARNVGETTPRGKELMFQAAKIKQVYDALTLNRRRQQAAQAYNNTSNSNSSNPASIPTENVPNSSQQQQQQQQQTRNNSNKFSNMIKQVLTPEENQEYEKLWQNFQVRHTSIKEKETYLKQNIDRLEQEINKQTDEGPKQQLQEKKIELLNDWKVLKIEYTKLFNNYQNSKKTFYVECARHNPALHKFLQESTQQQRVQQQRVQQQQQQQQQQQQQQQQQQQQQQQRQGQNQRKISSSNSTEIPSVTGPDALKSQQQQQNTITATNNPRGNVNTSQTEQSKAKVTNVNATASMLNNISSSKSAIFKQTEPAIPISENISTKTPAPVAYRSNRPTITGGSAMNASALNTPATTKLPPYEMDTQRVMSKRKLRELVKTVGIDEGDGETVIDGDVEELLLDLADDFVTNVTAFSCRLAKHRKSDNLEARDIQLHLERNWNIRIPGYSADEIRSTRKWNPSQNYNQKLQSITSDKVAAAKNNGNNVASLNTKK
partner: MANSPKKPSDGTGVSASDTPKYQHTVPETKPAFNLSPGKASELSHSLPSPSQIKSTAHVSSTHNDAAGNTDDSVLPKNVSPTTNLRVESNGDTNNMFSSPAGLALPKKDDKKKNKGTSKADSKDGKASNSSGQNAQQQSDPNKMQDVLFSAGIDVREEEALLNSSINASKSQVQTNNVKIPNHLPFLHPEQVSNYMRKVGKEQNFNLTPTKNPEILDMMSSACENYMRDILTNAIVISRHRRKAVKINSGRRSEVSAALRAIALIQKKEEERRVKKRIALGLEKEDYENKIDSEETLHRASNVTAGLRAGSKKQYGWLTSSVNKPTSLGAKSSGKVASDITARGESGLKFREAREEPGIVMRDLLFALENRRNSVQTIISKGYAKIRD

Variants of: B1
Settings: with taf4_yeast TAF4, P50105
L446A was tested, and the “effect of a mutation on the interaction” value was “disrupting interaction”. In the case of L449A, the “effect of a mutation on the interaction” value is reported as “disrupting interaction”.
